# Columns and labels:
# [1] = molecular target: human sodium-dependent phosphate transporter 2B (NaPi2b) (human) (UniProt O95436); assay: flow cytometry competition, HEK293-6e cells expressing human NaPi2b; row antibody unlabeled at 100 ug/mL (the reference of the calculation); competitor: AF647-labeled v16955 (negative control) at 1 ug/mL
# [2] = molecular target: human sodium-dependent phosphate transporter 2B (NaPi2b) (human) (UniProt O95436); assay: flow cytometry competition, HEK293-6e cells expressing human NaPi2b; row antibody unlabeled at 100 ug/mL (the reference of the calculation); competitor: AF647-labeled v18993 (lifastuzumab) at 1 ug/mL
# [3] = molecular target: human sodium-dependent phosphate transporter 2B (NaPi2b) (human) (UniProt O95436); assay: flow cytometry competition, HEK293-6e cells expressing human NaPi2b; row antibody unlabeled at 100 ug/mL (the reference of the calculation); competitor: AF647-labeled v23855 at 1 ug/mL
# [4] = molecular target: human sodium-dependent phosphate transporter 2B (NaPi2b) (human) (UniProt O95436); assay: flow cytometry competition, HEK293-6e cells expressing human NaPi2b; row antibody unlabeled at 100 ug/mL (the reference of the calculation); competitor: AF647-labeled v18992 (MX35) at 1 ug/mL
# [5] = molecular target: Fcγ receptor (FcγR) on the surface of immune effector cells; assay: cell-based or functional assay
# human sodium-dependent phosphate transporter 2B (NaPi2b) (human), sequence (O95436 whole entry): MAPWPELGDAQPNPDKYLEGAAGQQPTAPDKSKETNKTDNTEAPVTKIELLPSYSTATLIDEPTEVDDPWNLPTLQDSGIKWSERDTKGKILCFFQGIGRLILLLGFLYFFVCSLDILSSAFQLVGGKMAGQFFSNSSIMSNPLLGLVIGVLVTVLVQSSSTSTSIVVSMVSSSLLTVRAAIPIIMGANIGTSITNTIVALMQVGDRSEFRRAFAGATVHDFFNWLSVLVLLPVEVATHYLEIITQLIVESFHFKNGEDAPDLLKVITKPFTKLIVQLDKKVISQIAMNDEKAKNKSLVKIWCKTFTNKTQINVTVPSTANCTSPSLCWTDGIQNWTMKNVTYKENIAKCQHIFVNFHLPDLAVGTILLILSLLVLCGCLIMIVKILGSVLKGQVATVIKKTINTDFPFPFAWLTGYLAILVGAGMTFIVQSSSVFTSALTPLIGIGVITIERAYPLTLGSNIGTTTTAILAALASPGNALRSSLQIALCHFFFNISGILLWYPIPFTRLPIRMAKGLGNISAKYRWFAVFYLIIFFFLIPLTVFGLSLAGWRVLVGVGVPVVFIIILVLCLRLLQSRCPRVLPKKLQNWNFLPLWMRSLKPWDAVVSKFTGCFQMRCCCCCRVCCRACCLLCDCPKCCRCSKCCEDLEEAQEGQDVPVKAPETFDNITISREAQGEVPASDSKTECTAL
% Inhibition vs. irrelevant mAb [1] [%],% Inhibition vs. irrelevant mAb [2] [%],% Inhibition vs. irrelevant mAb [3] [%],% Inhibition vs. irrelevant mAb [4] [%],% ADCC at 0.0192 nM (25 PBMCs:1 IGROV-1) [5] [%],% ADCC at 0.48 nM (25 PBMCs:1 IGROV-1) [5] [%],% ADCC at 12 nM (25 PBMCs:1 IGROV-1) [5] [%],Substance
0,0,0,0,,,,"v16955 (Palivizumab), anti-RSV negative control antibody"
,,,,5.96,14,14.4,v18993 (lifastuzumab) (antibody)
